Laboratory results from patent US20250388702A1 (Dana-Farber, published 2025).

How the values were obtained:
KIR3DL1 = target: T1, KIR3DL1 (UniProt P43629 22-444, limits assumed); experiment: HEK293 cell microarray
T1 construct: whole, on cells

KIR3DL2 = target: T2, KIR3DL2 (UniProt P43630 22-455, limits assumed); experiment: HEK293 cell microarray
T2 construct: whole, on cells

KIR2DL1 = target: T3, KIR2DL1 (UniProt P43626 22-348, limits assumed); experiment: HEK293 cell microarray
T3 construct: whole, on cells
T3 sequence (P43626 22-348 limits assumed): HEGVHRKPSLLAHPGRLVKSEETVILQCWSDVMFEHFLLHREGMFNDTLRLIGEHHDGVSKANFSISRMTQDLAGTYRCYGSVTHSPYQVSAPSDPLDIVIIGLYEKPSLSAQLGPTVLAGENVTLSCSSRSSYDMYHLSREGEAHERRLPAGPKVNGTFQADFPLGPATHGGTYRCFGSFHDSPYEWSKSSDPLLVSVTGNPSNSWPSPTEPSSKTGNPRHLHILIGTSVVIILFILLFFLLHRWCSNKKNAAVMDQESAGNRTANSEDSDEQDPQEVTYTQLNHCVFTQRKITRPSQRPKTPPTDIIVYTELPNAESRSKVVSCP

KIR2DL2 = target: T4, KIR2DL2 (UniProt P43627 22-348, limits assumed); experiment: HEK293 cell microarray
T4 construct: whole, on cells
T4 sequence (P43627 22-348 limits assumed): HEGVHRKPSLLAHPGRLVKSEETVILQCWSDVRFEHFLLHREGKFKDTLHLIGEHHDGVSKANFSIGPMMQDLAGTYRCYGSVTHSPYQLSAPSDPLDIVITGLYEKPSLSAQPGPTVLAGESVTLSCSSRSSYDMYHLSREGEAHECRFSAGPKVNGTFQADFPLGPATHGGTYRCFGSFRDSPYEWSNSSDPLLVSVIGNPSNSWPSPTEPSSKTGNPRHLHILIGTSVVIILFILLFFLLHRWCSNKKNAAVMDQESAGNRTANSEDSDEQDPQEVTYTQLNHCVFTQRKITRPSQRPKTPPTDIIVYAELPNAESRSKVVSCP

KIR2DL3 = target: T5, KIR2DL3 (UniProt P43628 22-341, limits assumed); experiment: HEK293 cell microarray
T5 construct: whole, on cells
T5 sequence (P43628 22-341 limits assumed): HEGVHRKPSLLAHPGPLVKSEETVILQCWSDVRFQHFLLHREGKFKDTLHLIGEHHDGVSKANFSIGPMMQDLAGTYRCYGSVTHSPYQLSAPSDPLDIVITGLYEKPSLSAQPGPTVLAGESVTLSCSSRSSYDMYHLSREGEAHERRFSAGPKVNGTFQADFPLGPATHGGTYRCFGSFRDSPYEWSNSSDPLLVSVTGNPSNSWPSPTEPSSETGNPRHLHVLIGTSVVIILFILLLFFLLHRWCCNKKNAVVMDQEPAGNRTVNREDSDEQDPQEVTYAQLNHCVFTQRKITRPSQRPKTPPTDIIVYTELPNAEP

KIR2DL4 = target: T6, KIR2DL4 (UniProt Q99706 22-377, limits assumed); experiment: HEK293 cell microarray
T6 construct: whole, on cells
T6 sequence (Q99706 22-377 limits assumed): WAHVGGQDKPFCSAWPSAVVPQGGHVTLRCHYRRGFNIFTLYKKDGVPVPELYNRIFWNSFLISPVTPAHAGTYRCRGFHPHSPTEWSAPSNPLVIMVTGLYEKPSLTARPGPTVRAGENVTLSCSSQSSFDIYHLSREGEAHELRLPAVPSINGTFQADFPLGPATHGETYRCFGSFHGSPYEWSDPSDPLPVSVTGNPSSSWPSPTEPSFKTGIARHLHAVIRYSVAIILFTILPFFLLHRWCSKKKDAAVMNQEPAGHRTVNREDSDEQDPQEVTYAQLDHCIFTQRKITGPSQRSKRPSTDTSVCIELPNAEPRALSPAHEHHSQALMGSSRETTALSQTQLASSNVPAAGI

KIR2DS1 = target: T7, KIR2DS1 (UniProt Q14954 22-304, limits assumed); experiment: HEK293 cell microarray
T7 construct: whole, on cells
T7 sequence (Q14954 22-304 limits assumed): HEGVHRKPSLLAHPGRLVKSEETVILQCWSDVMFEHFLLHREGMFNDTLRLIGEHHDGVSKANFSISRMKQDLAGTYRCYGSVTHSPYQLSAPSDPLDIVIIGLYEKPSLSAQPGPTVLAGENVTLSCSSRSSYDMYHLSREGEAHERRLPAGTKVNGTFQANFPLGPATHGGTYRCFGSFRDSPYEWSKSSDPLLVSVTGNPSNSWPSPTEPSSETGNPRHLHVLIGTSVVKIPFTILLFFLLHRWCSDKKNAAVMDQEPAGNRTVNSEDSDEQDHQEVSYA

KIR2DS2 = target: T8, KIR2DS2 (UniProt P43631 22-304, limits assumed); experiment: HEK293 cell microarray
T8 construct: whole, on cells
T8 sequence (P43631 22-304 limits assumed): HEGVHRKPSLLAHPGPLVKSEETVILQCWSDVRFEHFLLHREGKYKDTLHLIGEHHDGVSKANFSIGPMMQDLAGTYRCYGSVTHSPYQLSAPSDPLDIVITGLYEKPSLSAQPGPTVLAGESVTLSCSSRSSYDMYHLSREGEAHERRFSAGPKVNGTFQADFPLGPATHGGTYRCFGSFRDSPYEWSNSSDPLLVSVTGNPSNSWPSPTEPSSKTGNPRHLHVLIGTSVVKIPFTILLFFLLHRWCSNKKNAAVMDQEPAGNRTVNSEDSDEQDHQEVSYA

KIR2DS3 = target: T9, KIR2DS3 (UniProt Q14952 22-304, limits assumed); experiment: HEK293 cell microarray
T9 construct: whole, on cells
T9 sequence (Q14952 22-304 limits assumed): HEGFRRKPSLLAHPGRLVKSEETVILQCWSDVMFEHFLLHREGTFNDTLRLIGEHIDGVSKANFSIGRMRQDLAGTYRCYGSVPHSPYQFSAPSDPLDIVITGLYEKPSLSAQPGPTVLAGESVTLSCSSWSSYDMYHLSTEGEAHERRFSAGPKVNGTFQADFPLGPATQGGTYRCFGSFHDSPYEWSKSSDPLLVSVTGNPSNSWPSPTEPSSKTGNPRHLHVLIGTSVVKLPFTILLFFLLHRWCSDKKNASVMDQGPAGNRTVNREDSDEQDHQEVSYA

KIR2DS5 = target: T10, KIR2DS5 (UniProt Q14953 22-304, limits assumed); experiment: HEK293 cell microarray
T10 construct: whole, on cells
T10 sequence (Q14953 22-304 limits assumed): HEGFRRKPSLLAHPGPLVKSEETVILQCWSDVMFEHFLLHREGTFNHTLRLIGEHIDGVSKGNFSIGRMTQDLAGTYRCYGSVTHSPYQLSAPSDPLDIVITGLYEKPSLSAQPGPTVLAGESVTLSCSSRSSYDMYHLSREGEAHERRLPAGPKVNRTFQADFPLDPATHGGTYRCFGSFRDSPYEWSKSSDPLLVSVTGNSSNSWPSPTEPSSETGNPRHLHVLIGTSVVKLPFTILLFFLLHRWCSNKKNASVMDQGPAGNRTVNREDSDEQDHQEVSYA

KIR3DS1 = target: T11, KIR3DS1 (UniProt Q14943 22-382, limits assumed); experiment: HEK293 cell microarray
T11 construct: whole, on cells
T11 sequence (Q14943 22-382 limits assumed): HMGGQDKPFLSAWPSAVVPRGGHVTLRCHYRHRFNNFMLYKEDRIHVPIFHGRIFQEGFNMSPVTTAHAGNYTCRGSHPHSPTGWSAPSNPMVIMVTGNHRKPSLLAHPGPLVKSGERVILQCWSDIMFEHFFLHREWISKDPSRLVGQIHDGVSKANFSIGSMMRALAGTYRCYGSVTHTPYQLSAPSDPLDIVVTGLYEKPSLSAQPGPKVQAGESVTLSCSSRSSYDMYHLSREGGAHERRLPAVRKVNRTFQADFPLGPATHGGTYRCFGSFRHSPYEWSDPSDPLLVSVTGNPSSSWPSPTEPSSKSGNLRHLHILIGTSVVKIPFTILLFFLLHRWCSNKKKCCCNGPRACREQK

KIR2DL5A = target: T12, KIR2DL5A (UniProt Q8N109 22-375, limits assumed); experiment: HEK293 cell microarray, hybridoma supernatant
T12 construct: whole, on cells
T12 sequence (Q8N109 22-375 limits assumed): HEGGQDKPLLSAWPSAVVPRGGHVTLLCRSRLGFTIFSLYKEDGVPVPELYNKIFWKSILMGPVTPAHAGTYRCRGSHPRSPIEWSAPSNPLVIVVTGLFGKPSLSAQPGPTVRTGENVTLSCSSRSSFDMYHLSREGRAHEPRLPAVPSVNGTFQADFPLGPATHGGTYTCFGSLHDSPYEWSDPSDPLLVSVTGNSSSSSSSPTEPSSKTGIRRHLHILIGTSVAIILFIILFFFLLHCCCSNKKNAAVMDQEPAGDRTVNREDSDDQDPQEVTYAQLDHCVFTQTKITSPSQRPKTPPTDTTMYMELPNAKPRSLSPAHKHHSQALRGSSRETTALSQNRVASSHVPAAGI
Procedure: In Table 4, replicate microarray slides expressing the KIR family cDNA panel (as in FIG. 1A, FIG. 2B, and FIG. 2C) were fixed and blocked with buffer containing PBS/0.5% BSA and incubated for 1 hour at room temperature with individual KIR3DL3 mAb hybridoma supernatants at 1:5, 1:25 and 1:250 dilutions in PBS/0.1% BSA. Cell arrays were washed with PBS and incubated for 1 hour at room temperature in PBS/0.1% BSA containing AF647-conjugated goat anti-mouse IgG (H+L) (Life Technologies, A21235). Slides were washed with PBS, dried, and imaged for ZsGreen1 and AF647 fluorescence.

T1 sequence (P43629 22-444 limits assumed): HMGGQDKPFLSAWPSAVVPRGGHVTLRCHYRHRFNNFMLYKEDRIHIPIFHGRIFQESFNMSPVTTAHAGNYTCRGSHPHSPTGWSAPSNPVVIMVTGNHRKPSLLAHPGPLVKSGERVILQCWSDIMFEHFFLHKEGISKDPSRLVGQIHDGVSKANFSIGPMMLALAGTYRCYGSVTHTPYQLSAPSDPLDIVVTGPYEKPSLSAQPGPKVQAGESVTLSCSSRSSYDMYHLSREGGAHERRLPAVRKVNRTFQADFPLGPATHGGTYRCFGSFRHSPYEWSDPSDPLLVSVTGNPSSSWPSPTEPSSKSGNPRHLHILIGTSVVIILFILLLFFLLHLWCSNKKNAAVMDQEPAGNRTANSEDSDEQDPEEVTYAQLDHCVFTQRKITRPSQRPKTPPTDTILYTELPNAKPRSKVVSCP
T2 sequence (P43630 22-455 limits assumed): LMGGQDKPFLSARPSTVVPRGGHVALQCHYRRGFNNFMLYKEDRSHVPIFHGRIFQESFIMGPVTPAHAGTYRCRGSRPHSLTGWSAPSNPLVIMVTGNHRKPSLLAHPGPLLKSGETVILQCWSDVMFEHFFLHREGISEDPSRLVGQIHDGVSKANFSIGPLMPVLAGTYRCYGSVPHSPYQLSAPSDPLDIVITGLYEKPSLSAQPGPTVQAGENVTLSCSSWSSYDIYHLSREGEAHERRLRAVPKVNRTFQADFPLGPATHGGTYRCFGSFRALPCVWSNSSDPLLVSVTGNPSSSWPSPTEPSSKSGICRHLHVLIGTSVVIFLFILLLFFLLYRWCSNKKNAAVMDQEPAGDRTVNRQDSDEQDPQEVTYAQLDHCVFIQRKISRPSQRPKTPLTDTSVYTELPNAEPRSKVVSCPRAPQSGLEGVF

B1: KIR3DL3 mAb 574.2.8C2.12.3.10 (antibody, IgG2a, V domains shown)
VH: KVQLQQSGAELVRPGTSVKVSCKASGYAFTNYLIEWVKQRPGQGLEWIGVINPGSGGTNDNEKFRDKATLTADKSSSTAYMQLSSLTSDDSAVYFCARGNYYGTTDWYFDVWGAGTTVTVSS
VL: QIVLTQSPAIMSASLGERVTMTCTASASVSSSSLHWYQQKPGSPPKFWIYSTTNLASGVPTRFSGSGSGTSYSLTISNMEAEDAATYYCHQYHRSPPTFGGGTKLEIK
notes: Mouse hybridoma antibody, IgG2a; only variable domains given; also called AVS-3706
Q: Does B1 bind (KIR3DL1)?
A: no binding (tested: supernatant 1:5, 1:25, 1:250)

Q: Does B1 bind (KIR3DL2)?
A: no binding (tested: supernatant 1:5, 1:25, 1:250)

Q: Does B1 bind (KIR2DL1)?
A: no binding (tested: supernatant 1:5, 1:25, 1:250)

Q: Does B1 bind (KIR2DL2)?
A: no binding (tested: supernatant 1:5, 1:25, 1:250)

Q: Does B1 bind (KIR2DL3)?
A: no binding (tested: supernatant 1:5, 1:25, 1:250)

Q: Does B1 bind (KIR2DL4)?
A: no binding (tested: supernatant 1:5, 1:25, 1:250)

Q: Does B1 bind (KIR2DS1)?
A: no binding (tested: supernatant 1:5, 1:25, 1:250)

Q: Does B1 bind (KIR2DS2)?
A: no binding (tested: supernatant 1:5, 1:25, 1:250)

Q: Does B1 bind (KIR2DS3)?
A: no binding (tested: supernatant 1:5, 1:25, 1:250)

Q: Does B1 bind (KIR2DS5)?
A: no binding (tested: supernatant 1:5, 1:25, 1:250)

Q: Does B1 bind (KIR3DS1)?
A: no binding (tested: supernatant 1:5, 1:25, 1:250)

Q: Does B1 bind (KIR2DL5A)?
A: binds
